This note sets out measurements from article PMC12318544, “Roughhousing with Ions: Surface-Induced Dissociation and Electron Capture Dissociation as Diagnostics of Q-Cyclic IMS-TOF Instrument Tuning Gentleness” (Journal of the American Society for Mass Spectrometry, 2024).

What all share (experiment): native MS; nanoESI on a Waters SELECT Series Cyclic IMS (Q-IM-TOF), gentle tuning at low cone voltage; quadrupole-selected charge-reduced precursor, surface-induced dissociation and ion mobility; 160/40 ammonium acetate/triethylammonium acetate; CRP 1 uM, SA 2-3 uM, PhosB 4 uM; TRAP ~1.5 uM complex in 600 mM ammonium acetate with TEAA added for 15+
Data set [1] addresses streptavidin (UniProt P22629).
Data set [2] concerns the molecule itself.
Data set [3] has as its target T1, human recombinant C-reactive protein (human), P02741.
T1 chain: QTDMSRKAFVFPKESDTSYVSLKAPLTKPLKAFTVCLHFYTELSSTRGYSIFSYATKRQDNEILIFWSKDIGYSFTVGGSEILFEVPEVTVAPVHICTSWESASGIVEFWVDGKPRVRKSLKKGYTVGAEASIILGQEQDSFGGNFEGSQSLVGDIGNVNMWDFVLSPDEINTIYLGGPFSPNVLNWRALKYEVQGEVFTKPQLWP
Particulars: remark: other sources report otherwise.

By stoichiometry N is commonly meant the number of molecules, sites or subunits per partner or assembly. “streptavidin (from UniProt P22629 25-183) (natural protein)”: the stoichiometry N in data set [1] was determined as 4.

B1: phosphorylase B (enzyme, UniProt P00489 1-843, looked up)
chain: MSRPLSDQEKRKQISVRGLAGVENVTELKKNFNRHLHFTLVKDRNVATPRDYYFALAHTVRDHLVGRWIRTQQHYYEKDPKRIYYLSLEFYMGRTLQNTMVNLALENACDEATYQLGLDMEELEEIEEDAGLGNGGLGRLAACFLDSMATLGLAAYGYGIRYEFGIFNQKICGGWQMEEADDWLRYGNPWEKARPEFTLPVHFYGRVEHTSQGAKWVDTQVVLAMPYDTPVPGYRNNVVNTMRLWSAKAPNDFNLKDFNVGGYIQAVLDRNLAENISRVLYPNDNFFEGKELRLKQEYFVVAATLQDIIRRFKSSKFGCRDPVRTNFDAFPDKVAIQLNDTHPSLAIPELMRVLVDLERLDWDKAWEVTVKTCAYTNHTVLPEALERWPVHLLETLLPRHLQIIYEINQRFLNRVAAAFPGDVDRLRRMSLVEEGAVKRINMAHLCIAGSHAVNGVARIHSEILKKTIFKDFYELEPHKFQNKTNGITPRRWLVLCNPGLAEIIAERIGEEYISDLDQLRKLLSYVDDEAFIRDVAKVKQENKLKFAAYLEREYKVHINPNSLFDVQVKRIHEYKRQLLNCLHVITLYNRIKKEPNKFVVPRTVMIGGKAAPGYHMAKMIIKLITAIGDVVNHDPVVGDRLRVIFLENYRVSLAEKVIPAADLSEQISTAGTEASGTGNMKFMLNGALTIGTMDGANVEMAEEAGEENFFIFGMRVEDVDRLDQRGYNAQEYYDRIPELRQIIEQLSSGFFSPKQPDLFKDIVNMLMHHDRFKVFADYEEYVKCQERVSALYKNPREWTRMVIRNIATSGKFSSDRTIAQYAREIWGVEPSRQRLPAPDEKIP
notes: phosphorylase B, dimer, 197 kDa; This catalogue product is recalled to be from rabbit muscle (surmise); also called PhosB; source: bought: Millipore Sigma (P/N P6635)
B1: the “stoichiometry N” value in data set [2] was found to be 2.

B2: human recombinant C-reactive protein, P02741 19-224 (natural protein)
chain: QTDMSRKAFVFPKESDTSYVSLKAPLTKPLKAFTVCLHFYTELSSTRGYSIFSYATKRQDNEILIFWSKDIGYSFTVGGSEILFEVPEVTVAPVHICTSWESASGIVEFWVDGKPRVRKSLKKGYTVGAEASIILGQEQDSFGGNFEGSQSLVGDIGNVNMWDFVLSPDEINTIYLGGPFSPNVLNWRALKYEVQGEVFTKPQLWP
As to B2, in data set [3], the stoichiometry N was determined as 5.

B3: Tryptophan RNA-binding attenuation protein (TRAP) from Bacillus stearothermophilus (natural protein, UniProt Q9X6J6 1-74, looked up)
chain: MYTNSDFVVIKALEDGVNVIGLTRGADTRFHHSEKLDKGEVLIAQFTEHTSAIKVRGKAYIQTRHGVIESEGKK
notes: also called TRAP bst; source: Mark Foster's lab; copies: 11
Take B3: the “stoichiometry N” value in data set [2] came out at 11.
